Test results reported in patent publication EP4520771A2 (Genmab A/S, dated 2025).
Where a chain is given by its changes, count along the chain named.

B1: HER2 antibody 169 (antibody, V domains shown)
VH: QVQLVQSGAEVKKPGASVKVSCKASGYTFTNYGISWVRQAPGQGLEWMGWLSAYSGNTIYAQKLQGRVTMTTDTSTTTAYMELRSLRSDDTAVYYCARDRIVVRPDYFDYWGQGTLVTVSS
VL: EIVLTQSPATLSLSPGERATLSCRASQSVSSYLAWYQQKPGQAPRLLIYDASNRATGIPARFSGSGSGTDFTLTISSLEPEDFAVYYCQQRSNWPRTFGQGTKVEIK
B2: HER2 antibody 127 (antibody, V domains shown)
VH: EVQLVQSGAEVKKPGESLTISCKGSGYSFSIYWIGWVRQMPGKGLEWMGIIFPGDSDIRYSPSFQGQVTISADKSISTAYLQWSSLKASDTAMYYCARQPGDWSPRHWYFDLWGRGTLVTVSS
VL: VIWMTQSPSLLSASTGDRVTISCRMSQGISSYLAWYQQKPGKAPELLIYAASTLQSGVPSRFSGSGSGTDFTLTISYLQSEDFATYYCQQYYSFPLTFGGGTKVEIK
B3: HER2 antibody 132 (antibody, V domains shown)
VH: QVQLVQSGAEVKKPGASVKVSCKASGYTFTSYGISWVRQAPGQGLEWMGWISAYNGNSNYVQKFQGRVTMTTDTTTSTAYMELRSLTSDDTAVYYCAREYSYDSGTYFYYGMDVWGQGTTVTVSS
VL: EIVLTQSPATLSLSPGERATLSCRASQSVSSYLAWYQQKPGQAPRLLIYDASNRATGIPARFSGSGSGTDFTLTISSLEPEDFAVYYCQQRSNWPMYTFGQGTKLEIK
B4: HER2 antibody 129 (antibody, V domains shown)
VH: QVQLVESGGGVVQPGRSLRLSCAASGFTFSTFAIHWVRQAPGKGLEWVAVISYDGGHKFYADSVKGRFTISRDNSKNTLYLQMNSLRAEDTAMYYCARGLGVWGAFDYWGQGTLVTVSS
VL: EIVLTQSPATLSLSPGERATLSCRASQSVSSYLAWYQQKPGQAPRLLIYDASNRATGIPARFSGSGSGTDFTLTISSLEPEDFAVYYCQQRSNWWTFGQGTKVEIK
B5: HER2 antibody 159 (antibody, V domains shown)
VH: EVQLVQSGAEVKKPGESLKISCKGSGYNFTSYWIGWVRQMPGKGLEWMGIIYPGDSDTRYSPSFQGQVTISADKSISTAYLQWSSLKASDTAMYYCARWGTYYDILTGYFNWFDPWGQGTLVTVSS
VL: DIQMTQSPSSLSASVGDRVTITCRASQGISSWLAWYQQKPEKAPKSLIYAASSLQSGVPSRFSGSGSGTDFTLTISSLQPEDFATYYCQQYYIYPWTFGQGTKVEIK
B6: HER2 antibody 091 (antibody, V domains shown)
VH: QVQLQQWGAGLLKPSETLSLTCAVSGGSFSGYYWTWIRQPPGKGLEWIGEIYHSGDTNYNPSLKSRVTISVDTSKNQFSLKLYSVTAADTAVYYCARLYFGSGIYYLDYWGQGTLVTVSS
VL: B5 VL with A34V, Y92N, I93S, Y94F, W96P
B7: HER2 antibody 025 (antibody, V domains shown)
VH: QVQLQQWGAGLLKPSETLSLTCAVYGGSFSDYYWNWIRQPPGKGLEWIGEIHHSGSTNYNPSLKSRVTISVDTSKNQFSLKLSSVTAADTAVYYCARGYYDSGVYYFDYWAQGTLVTVSS
VL: B5 VL with S31R, Q55R, Y92N, I93S, W96I, K103R, V104L
notes: also called HuMab-025; PC1014-025
B8: HER2 antibody 153 (antibody, V domains shown)
VH: QVQLVESGGGVVQPGRSLRLSCAASGFTFSDYVIHWVRQAPGKGLEWVTVISYDGSNKYYADSVKGRFTISRDNSKNTLYLQMNSLSAEDTAMYYCARGGITGTTGVFDYWGQGTLVTVSS
VL: B5 VL with A50D, S67Y, T72S, T85I, Y92K, I93S, W96I, K103R, V104L
B9: HER2 antibody 098 (antibody, V domains shown)
VH: EVQLLESGGGLVQPGGSLRLSCAASGFTFSNYGMSWVRQAPGKGLEWVSAISGSAYSTYYADSVKGRFTISRDNSKNTLWLQMNSLRAEDTAVYYCAKAHYHGSGSYYTLFDYWGQGTLVTVSS
VL: B5 VL with Y92N, I93S, W96Y, V104L
notes: also called PC1014-098; TH1014-098
B10: HER2 antibody 084 (antibody, V domains shown)
VH: QVQLVQSGAEVKKPGSSVKVSCKASGGTFRTYAINWVRQAPGQGLEWMGRINTVLGIVNHAQKFQGRVTITADKSTNTAYMELNSLRSEDTAVYYCAREKGVDYYYGIEVWGQGTTVTVSS
VL: DIQMTQSPSSVSASVGDRVTITCRASQGISSWLAWYQHKPGKAPKLLIYVASTLQSGVPSRFSGSGSGTDFTLTISSLQPEDFATYYCQQANSFPLTFGGGTKVEIK
B11: HER2 antibody 050 (antibody, V domains shown)
VH: EVQLLESGGGLVQPGGSLRLSCAASGFTFSSYAMNWVRQAPGKGLEWVSAISGRGGTTYYADSVKGRFTISRDNSKNTLYLQMSSLRAEDTAVYYCAKARANWDYFDYWGQGTLVTVSS
VL: B10 VL with V50A, T53I, L96I, G100Q, K103R, V104L
B12: HER2 antibody 106 (antibody, V domains shown)
VH: EVQLVQSGAEVKKPGESLKISCKGSGYSFTRYWIGWVRQMPGKGLEWMGIIYPGDSDTRYSPSFQGQVTISADKSISTAYLQWSSLKASDTAMYYCARLTGDRGFDYYSGMDVWGQGTTVTVSS
VL: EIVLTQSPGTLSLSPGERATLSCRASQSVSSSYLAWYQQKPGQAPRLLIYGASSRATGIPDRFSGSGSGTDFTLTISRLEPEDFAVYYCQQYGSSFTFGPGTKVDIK
B13: HER2 antibody 005 (antibody, human IgG1, V domains shown)
VH: EVQLVQSGAEVKKPGESLKISCKASGYSFHFYWIGWVRQMPGKGLEWMGSIYPGDSDTRYRPSFQGQVTISADKSISTAYLQWTSLKASDTAIYYCARQRGDYYYFYGMDVWGQGTTVTVSS
VL: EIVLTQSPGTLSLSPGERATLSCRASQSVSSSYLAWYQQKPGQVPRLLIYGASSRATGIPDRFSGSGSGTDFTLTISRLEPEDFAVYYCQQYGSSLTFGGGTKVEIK
notes: human IgG1,κ; also called HuMab 005; PC1014-005
B14: HER2 antibody 059 (antibody, V domains shown)
VH: QVQLVQSGAEVKKPGASVRVPCKASGYTFTRYGISWVRQAPGQGLEWMGWISAYNGKTYYAQKLQGRVTMTTDTSTSTAYMELRSLRSDDTAVYYCARSPLLWFEELYFDYWGQGTLVTVSS
VL: EIVLTQSPGTLSLSPGERATLSCRASQSVSSTYLAWYQQKPGQAPRLLIYGASSRATGIPDRFSGSGSGTDFTLTISRLEPEDFAVYYCQQYGTSLFTFGPGTKVDIK
B15: HER2 antibody 060 (antibody, V domains shown)
VH: EVQLVQSGAEVKKPGESLKISCKGSGYRFTSYWIGWVRQMPGKGLEWMGSIYPGDSYTRNSPSFQGQVTISADKSIATAYLQWNSLKASDTAMYYCARHAGDFYYFDGLDVWGQGTTVTVSS
VL: not shown
B16: HER2 antibody 111 (antibody, V domains shown)
VH: QVQLVQSGAEVKKPGSSVKVSCKASGGTFSSYGISWVRQAPGPGLEWMGRIIPILGIANYAQKFQGRVTITADKSTNTAYMELSSLRSEDTAVYYCARDQEYSSNWYYWGQGTLVTVSS
VL: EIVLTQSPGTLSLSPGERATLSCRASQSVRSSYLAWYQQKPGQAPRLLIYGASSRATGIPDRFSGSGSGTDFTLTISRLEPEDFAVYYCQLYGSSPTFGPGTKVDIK

Target: T1, human epidermal growth factor receptor 2 (HER2) (human, UniProt P04626 23-1255)
Assay: cell-based or functional assay

Row | Binder | % cells killed (maximal), AU565 cells, anti-kappa-ETA'-conjugated antibody | EC50 of AU565 cell kill, anti-kappa-ETA'-conjugated antibody
1 | B1 | 49.9% | 0.0356 µg/mL
2 | B2 | 69% | 0.0345 µg/mL
3 | B3 | 61.6% | 0.0394 µg/mL
4 | B4 | 60.8% | 0.0309 µg/mL
5 | B5 | 70.3% | 0.0349 µg/mL
6 | B6 | 50.6% | 0.0465 µg/mL
7 | B7 | 60% | 0.0167 µg/mL
8 | B8 | 60.3% | 0.0323 µg/mL
9 | B9 | 58.7% | 0.0121 µg/mL
10 | B10 | 58.1% | 0.027 µg/mL
11 | B11 | 52.4% | 0.0127 µg/mL

Target: T1, human epidermal growth factor receptor …
Assay: cell-based or functional assay
Remark: another data set of the same source

Row | Binder | % cells killed (maximal), A431 cells, anti-kappa-ETA'-conjugated antibody | EC50 of A431 cell kill, anti-kappa-ETA'-conjugated antibody
12 | B1 | 34% | –
13 | B4 | 75.9% | ~0.0106 µg/mL
14 | B6 | 83.3% | ~0.00986 µg/mL
15 | B7 | 86.7% | ~0.00977 µg/mL
16 | B8 | 82.4% | ~0.0101 µg/mL
17 | B9 | 87.2% | 0.00165 µg/mL
18 | B10 | 50.5% | –

Target: T1, human epidermal growth factor receptor …
Assay: flow cytometry on AU565 cells

Row | Binder | EC50
19 | B9 | 0.336 µg/mL

Target: T1, human epidermal growth factor receptor …
Assay: cell-based or functional assay
Remark: another data set of the same source

Row | Binder | % cells killed (maximal), AU565 cells, anti-kappa-ETA'-conjugated antibody | EC50 of AU565 cell kill, anti-kappa-ETA'-conjugated antibody
20 | B12 | 59.1% | 0.108 µg/mL
21 | B13 | 69.7% | 0.0151 µg/mL
22 | B14 | 67% | 0.0677 µg/mL
23 | B15 | 64.3% | 0.0794 µg/mL
24 | B16 | 72% | 0.0242 µg/mL

Target: T1, human epidermal growth factor receptor …
Assay: cell-based or functional assay
Remark: another data set of the same source

Row | Binder | EC50 of A431 cell kill, anti-kappa-ETA'-conjugated antibody
25 | B13 | ~0.0101 µg/mL
26 | B15 | ~0.01 µg/mL

Target: T1, human epidermal growth factor receptor …
Assay: flow cytometry on A431 cells

Row | Binder | binding result | EC50
27 | B13 | binds | –
28 | B7 | binds | –
29 | B9 | – | 0.068 µg/mL

Target: T1, human epidermal growth factor receptor …
Assay: cell-based or functional assay
Remark: another data set of the same source

Row | Binder | EC50 of A431 cell kill, anti-kappa-ETA'-conjugated antibody
30 | B16 | ~0.01 µg/mL
